Test results from patent US20090298765A1 (Takeda / Millennium, published 2009).
Non-standard residues stand in square brackets, D forms with d. No end group written: not given here. Phe(3-Cl) = N[C@@H](Cc1cccc(Cl)c1)C(=O)O; Phe(4-Cl) = N[C@@H](Cc1ccc(Cl)cc1)C(=O)O; Phe(4-NH2) = Nc1ccc(C[C@H](N)C(=O)O)cc1; Phe(2-Cl) = N[C@@H](Cc1ccccc1Cl)C(=O)O; 1Nal = N[C@@H](Cc1cccc2ccccc12)C(=O)O; 2Nal = N[C@@H](Cc1ccc2ccccc2c1)C(=O)O; Arg(Me) = CNC(=N)NCCC[C@H](N)C(=O)O; Bta = N[C@@H](Cc1csc2ccccc12)C(=O)O; Cha = N[C@@H](CC1CCCCC1)C(=O)O; azaGly = NNC(=O)O

Legend:
[1] = target: T1, human OT7T175 (metastin receptor) (human, UniProt Q969F8 1-398); test: competition with Cy-5 metastin (40-54) on hOT7T175-CHO cells, FMAT
T1 construct: expressed on CHO cells; also called hOT7T175; hOT7T175-expressed CHO cells
T1 sequence (Q969F8 whole entry L364H): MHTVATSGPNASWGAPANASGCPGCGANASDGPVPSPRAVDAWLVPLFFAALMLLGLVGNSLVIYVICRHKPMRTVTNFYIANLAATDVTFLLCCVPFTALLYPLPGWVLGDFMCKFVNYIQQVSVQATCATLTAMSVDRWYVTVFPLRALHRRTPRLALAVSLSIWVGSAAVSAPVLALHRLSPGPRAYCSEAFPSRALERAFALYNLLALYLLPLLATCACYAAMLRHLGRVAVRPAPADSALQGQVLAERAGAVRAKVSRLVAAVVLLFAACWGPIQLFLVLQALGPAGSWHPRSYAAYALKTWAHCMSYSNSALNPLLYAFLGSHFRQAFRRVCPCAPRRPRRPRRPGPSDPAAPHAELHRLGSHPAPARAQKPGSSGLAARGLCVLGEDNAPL

[2] = target: T1, human OT7T175 (metastin receptor); test: cell-based or functional assay

B1: [D-Tyr1,Ala3,AzaGly7,Arg(Me)9]MS10 (peptide)
peptide: [dY]NANSF[azaGly]L[Arg(Me)]F-NH2
modifications: N-terminus assumed
SMILES: CNC(=N)NCCC[C@H](NC(=O)[C@H](CC(C)C)NC(=O)NNC(=O)[C@H](Cc1ccccc1)NC(=O)[C@H](CO)NC(=O)[C@H](CC(N)=O)NC(=O)[C@H](C)NC(=O)[C@H](CC(N)=O)NC(=O)[C@H](N)Cc1ccc(O)cc1)C(=O)N[C@@H](Cc1ccccc1)C(N)=O
notes: also called Compound No. 235
IC50 [1]: 100 nM | Ca ion level-increasing activity (FLIPR) [2]: 1 x Metastin (1-54)

B2: [D-Tyr1,Phe(4NH2)3,AzaGly7,Arg(Me)9]MS10 (peptide)
peptide: [dY]N[Phe(4-NH2)]NSF[azaGly]L[Arg(Me)]F-NH2
modifications: N-terminus assumed
SMILES: CNC(=N)NCCC[C@H](NC(=O)[C@H](CC(C)C)NC(=O)NNC(=O)[C@H](Cc1ccccc1)NC(=O)[C@H](CO)NC(=O)[C@H](CC(N)=O)NC(=O)[C@H](Cc1ccc(N)cc1)NC(=O)[C@H](CC(N)=O)NC(=O)[C@H](N)Cc1ccc(O)cc1)C(=O)N[C@@H](Cc1ccccc1)C(N)=O
notes: also called Compound No. 250
IC50 [1]: 3.7 nM | Ca ion level-increasing activity (FLIPR) [2]: 1 x Metastin (1-54)

B3: [D-Tyr1,Thr3,Arg(Me)9]MS10 (peptide)
peptide: [dY]NTNSFGL[Arg(Me)]F-NH2
modifications: N-terminus assumed
SMILES: CNC(=N)NCCC[C@H](NC(=O)[C@H](CC(C)C)NC(=O)CNC(=O)[C@H](Cc1ccccc1)NC(=O)[C@H](CO)NC(=O)[C@H](CC(N)=O)NC(=O)[C@@H](NC(=O)[C@H](CC(N)=O)NC(=O)[C@H](N)Cc1ccc(O)cc1)[C@@H](C)O)C(=O)N[C@@H](Cc1ccccc1)C(N)=O
notes: also called Compound No. 205
IC50 [1]: 260 nM | Ca ion level-increasing activity (FLIPR) [2]: 10 x Metastin (1-54)

B4: [D-Tyr1,Ala7,Arg(Me)9]MS10 (peptide)
peptide: [dY]NWNSFAL[Arg(Me)]F-NH2
modifications: N-terminus assumed
SMILES: CNC(=N)NCCC[C@H](NC(=O)[C@H](CC(C)C)NC(=O)[C@H](C)NC(=O)[C@H](Cc1ccccc1)NC(=O)[C@H](CO)NC(=O)[C@H](CC(N)=O)NC(=O)[C@H](Cc1c[nH]c2ccccc12)NC(=O)[C@H](CC(N)=O)NC(=O)[C@H](N)Cc1ccc(O)cc1)C(=O)N[C@@H](Cc1ccccc1)C(N)=O
notes: also called Compound No. 204
IC50 [1]: 680 nM | Ca ion level-increasing activity (FLIPR) [2]: 5 x Metastin (1-54)

B5: [D-Tyr1,Val3,Arg(Me)9]MS10 (peptide)
peptide: [dY]NVNSFGL[Arg(Me)]F-NH2
modifications: N-terminus assumed
SMILES: CNC(=N)NCCC[C@H](NC(=O)[C@H](CC(C)C)NC(=O)CNC(=O)[C@H](Cc1ccccc1)NC(=O)[C@H](CO)NC(=O)[C@H](CC(N)=O)NC(=O)[C@@H](NC(=O)[C@H](CC(N)=O)NC(=O)[C@H](N)Cc1ccc(O)cc1)C(C)C)C(=O)N[C@@H](Cc1ccccc1)C(N)=O
notes: also called Compound No. 229
IC50 [1]: 130 nM | Ca ion level-increasing activity (FLIPR) [2]: 1 x Metastin (1-54)

[dY]NFNSF[azaGly]L[Arg(Me)]F-NH2 (also called Compound No. 244) [[D-Tyr1,Phe3,AzaGly7,Arg(Me)9]MS10]
IC50 [1]: 77 nM | Ca ion level-increasing activity (FLIPR) [2]: 1 x Metastin (1-54)

B6: [D-Tyr1,Phe(4Cl)3,AzaGly7,Arg(Me)9]MS10 (peptide)
peptide: [dY]N[Phe(4-Cl)]NSF[azaGly]L[Arg(Me)]F-NH2
modifications: N-terminus assumed
SMILES: CNC(=N)NCCC[C@H](NC(=O)[C@H](CC(C)C)NC(=O)NNC(=O)[C@H](Cc1ccccc1)NC(=O)[C@H](CO)NC(=O)[C@H](CC(N)=O)NC(=O)[C@H](Cc1ccc(Cl)cc1)NC(=O)[C@H](CC(N)=O)NC(=O)[C@H](N)Cc1ccc(O)cc1)C(=O)N[C@@H](Cc1ccccc1)C(N)=O
notes: also called Compound No. 249
IC50 [1]: 150 nM | Ca ion level-increasing activity (FLIPR) [2]: 1 x Metastin (1-54)

B7: [D-Tyr1,Ile3,AzaGly7,Arg(Me)9]MS10 (peptide)
peptide: [dY]NINSF[azaGly]L[Arg(Me)]F-NH2
modifications: N-terminus assumed
SMILES: CC[C@H](C)[C@H](NC(=O)[C@H](CC(N)=O)NC(=O)[C@H](N)Cc1ccc(O)cc1)C(=O)N[C@@H](CC(N)=O)C(=O)N[C@@H](CO)C(=O)N[C@@H](Cc1ccccc1)C(=O)NNC(=O)N[C@@H](CC(C)C)C(=O)N[C@@H](CCCNC(=N)NC)C(=O)N[C@@H](Cc1ccccc1)C(N)=O
notes: also called Compound No. 233
IC50 [1]: 23 nM | Ca ion level-increasing activity (FLIPR) [2]: 1 x Metastin (1-54)

B8: [D-Tyr1,Val3,AzaGly7,Arg(Me)9]MS10 (peptide)
peptide: [dY]NVNSF[azaGly]L[Arg(Me)]F-NH2
modifications: N-terminus assumed
SMILES: CNC(=N)NCCC[C@H](NC(=O)[C@H](CC(C)C)NC(=O)NNC(=O)[C@H](Cc1ccccc1)NC(=O)[C@H](CO)NC(=O)[C@H](CC(N)=O)NC(=O)[C@@H](NC(=O)[C@H](CC(N)=O)NC(=O)[C@H](N)Cc1ccc(O)cc1)C(C)C)C(=O)N[C@@H](Cc1ccccc1)C(N)=O
notes: also called Compound No. 234
IC50 [1]: 47 nM | Ca ion level-increasing activity (FLIPR) [2]: 1 x Metastin (1-54)

B9: [D-Tyr1,Phe(2Cl)3,AzaGly7,Arg(Me)9]MS10 (peptide)
peptide: [dY]N[Phe(2-Cl)]NSF[azaGly]L[Arg(Me)]F-NH2
modifications: N-terminus assumed
SMILES: CNC(=N)NCCC[C@H](NC(=O)[C@H](CC(C)C)NC(=O)NNC(=O)[C@H](Cc1ccccc1)NC(=O)[C@H](CO)NC(=O)[C@H](CC(N)=O)NC(=O)[C@H](Cc1ccccc1Cl)NC(=O)[C@H](CC(N)=O)NC(=O)[C@H](N)Cc1ccc(O)cc1)C(=O)N[C@@H](Cc1ccccc1)C(N)=O
notes: also called Compound No. 247
IC50 [1]: 45 nM | Ca ion level-increasing activity (FLIPR) [2]: 1 x Metastin (1-54)

[dY]NWNSFGV[Arg(Me)]F-NH2 (also called Compound No. 213) [[D-Tyr1,Val8,Arg(Me)9]MS10]
IC50 [1]: 190 nM | Ca ion level-increasing activity (FLIPR) [2]: 2 x Metastin (1-54)

B10: [D-Tyr1,Thr2,Arg(Me)9]MS10 (peptide)
peptide: [dY]TWNSFGL[Arg(Me)]F-NH2
modifications: N-terminus assumed
SMILES: CNC(=N)NCCC[C@H](NC(=O)[C@H](CC(C)C)NC(=O)CNC(=O)[C@H](Cc1ccccc1)NC(=O)[C@H](CO)NC(=O)[C@H](CC(N)=O)NC(=O)[C@H](Cc1c[nH]c2ccccc12)NC(=O)[C@@H](NC(=O)[C@H](N)Cc1ccc(O)cc1)[C@@H](C)O)C(=O)N[C@@H](Cc1ccccc1)C(N)=O
notes: also called Compound No. 215
IC50 [1]: 250 nM | Ca ion level-increasing activity (FLIPR) [2]: 10 x Metastin (1-54)

[dY]N[Phe(3-Cl)]NSF[azaGly]L[Arg(Me)]F-NH2 (also called Compound No. 248) [[D-Tyr1,Phe(3Cl)3,AzaGly7,Arg(Me)9]MS10]
IC50 [1]: 58 nM | Ca ion level-increasing activity (FLIPR) [2]: 2 x Metastin (1-54)

[dY]QWNSFGL[Arg(Me)]F-NH2 (also called Compound No. 214) [[D-Tyr1,Gln2,Arg(Me)9]MS10]
IC50 [1]: 390 nM | Ca ion level-increasing activity (FLIPR) [2]: 10 x Metastin (1-54)

B11: [D-Tyr1,Nal(1)3,AzaGly7,Arg(Me)9]MS10 (peptide)
peptide: [dY]N[1Nal]NSF[azaGly]L[Arg(Me)]F-NH2
modifications: N-terminus assumed
SMILES: CNC(=N)NCCC[C@H](NC(=O)[C@H](CC(C)C)NC(=O)NNC(=O)[C@H](Cc1ccccc1)NC(=O)[C@H](CO)NC(=O)[C@H](CC(N)=O)NC(=O)[C@H](Cc1cccc2ccccc12)NC(=O)[C@H](CC(N)=O)NC(=O)[C@H](N)Cc1ccc(O)cc1)C(=O)N[C@@H](Cc1ccccc1)C(N)=O
notes: also called Compound No. 245
IC50 [1]: 98 nM | Ca ion level-increasing activity (FLIPR) [2]: 1 x Metastin (1-54)

B12: [D-Tyr1,Nal(2)3,AzaGly7,Arg(Me)9]MS10 (peptide)
peptide: [dY]N[2Nal]NSF[azaGly]L[Arg(Me)]F-NH2
modifications: N-terminus assumed
SMILES: CNC(=N)NCCC[C@H](NC(=O)[C@H](CC(C)C)NC(=O)NNC(=O)[C@H](Cc1ccccc1)NC(=O)[C@H](CO)NC(=O)[C@H](CC(N)=O)NC(=O)[C@H](Cc1ccc2ccccc2c1)NC(=O)[C@H](CC(N)=O)NC(=O)[C@H](N)Cc1ccc(O)cc1)C(=O)N[C@@H](Cc1ccccc1)C(N)=O
notes: also called Compound No. 246
IC50 [1]: 7.1 nM | Ca ion level-increasing activity (FLIPR) [2]: 2 x Metastin (1-54)

B13: [Ala(3-Bzt)10]MS10 (peptide)
peptide: YNWNSFGLR[Bta]-NH2
modifications: N-terminus assumed
SMILES: CC(C)C[C@H](NC(=O)CNC(=O)[C@H](Cc1ccccc1)NC(=O)[C@H](CO)NC(=O)[C@H](CC(N)=O)NC(=O)[C@H](Cc1c[nH]c2ccccc12)NC(=O)[C@H](CC(N)=O)NC(=O)[C@@H](N)Cc1ccc(O)cc1)C(=O)N[C@@H](CCCNC(=N)N)C(=O)N[C@@H](Cc1csc2ccccc12)C(N)=O
notes: also called Compound No. 189
IC50 [1]: 230 nM | Ca ion level-increasing activity (FLIPR) [2]: 10 x Metastin (1-54)

B14: des(1)-[D-Tyr2,Ser3,Arg(Me)9]MS10 (peptide)
peptide: [dY]SNSFGL[Arg(Me)]F-NH2
modifications: N-terminus assumed
SMILES: CNC(=N)NCCC[C@H](NC(=O)[C@H](CC(C)C)NC(=O)CNC(=O)[C@H](Cc1ccccc1)NC(=O)[C@H](CO)NC(=O)[C@H](CC(N)=O)NC(=O)[C@H](CO)NC(=O)[C@H](N)Cc1ccc(O)cc1)C(=O)N[C@@H](Cc1ccccc1)C(N)=O
notes: also called Compound No. 226
IC50 [1]: 100 nM | Ca ion level-increasing activity (FLIPR) [2]: 1 x Metastin (1-54)

B15: des(1)-[D-Tyr2,Thr3,Arg(Me)9]MS10 (peptide)
peptide: [dY]TNSFGL[Arg(Me)]F-NH2
modifications: N-terminus assumed
SMILES: CNC(=N)NCCC[C@H](NC(=O)[C@H](CC(C)C)NC(=O)CNC(=O)[C@H](Cc1ccccc1)NC(=O)[C@H](CO)NC(=O)[C@H](CC(N)=O)NC(=O)[C@@H](NC(=O)[C@H](N)Cc1ccc(O)cc1)[C@@H](C)O)C(=O)N[C@@H](Cc1ccccc1)C(N)=O
notes: also called Compound No. 227
IC50 [1]: 48 nM | Ca ion level-increasing activity (FLIPR) [2]: 1 x Metastin (1-54)

B16: [D-Tyr1,Cha3,6,Arg(Me)9,Trp10]MS10 (peptide)
peptide: [dY]N[Cha]NS[Cha]GL[Arg(Me)]W-NH2
modifications: N-terminus assumed
SMILES: CNC(=N)NCCC[C@H](NC(=O)[C@H](CC(C)C)NC(=O)CNC(=O)[C@H](CC1CCCCC1)NC(=O)[C@H](CO)NC(=O)[C@H](CC(N)=O)NC(=O)[C@H](CC1CCCCC1)NC(=O)[C@H](CC(N)=O)NC(=O)[C@H](N)Cc1ccc(O)cc1)C(=O)N[C@@H](Cc1c[nH]c2ccccc12)C(N)=O
notes: also called Compound No. 182
IC50 [1]: 98 nM | Ca ion level-increasing activity (FLIPR) [2]: 5 x Metastin (1-54)

[dY][2Nal]NSF[azaGly]L[Arg(Me)]F-NH2 (also called Compound No. 255) [des(1)-[D-Tyr2,Nal(2)3,AzaGly7,Arg(Me)9]MS10]
IC50 [1]: 33 nM | Ca ion level-increasing activity (FLIPR) [2]: 1 x Metastin (1-54)
